Values joined by “and” are separate entries in the source; they are usually repeats but may differ in a detail not shown here. Equal values may be shown once.
Key:
[1] = biological target: tau of normal human brain homogenate (native) (human) (UniProt P10636)
[2] = biological target: PrP^C, non-pathogenic human prion protein, from normal brain homogenate (human) (UniProt P04156)
[3] = biological target: PrP^Sc, pathogenic conformer of the human prion protein, from vCJD brain homogenate (human) (UniProt P04156)
[4] = biological target: aggregated Aβ42 from Alzheimer's disease brain homogenate (human) (UniProt P05067)
[5] = biological target: PrP^Sc, pathogenic conformer of the human prion protein, from vCJD brain homogenate (human) (UniProt P04156); remark: listed apart in the source

In the case of “PSR1 (peptoid reagent XIIb attached to magnetic beads) (designed binder)”, the tau ELISA signal after pulldown, mean of 3 [1] is reported as 0.11 and 0.12, the tau ELISA signal after pulldown, replicate [1] is reported as 0.11 and 0.12 and 0.13 and the ELISA signal after pulldown (RLU, ave) [2] is reported as 9.9 RLU. It also gave an ELISA signal after pulldown (RLU, ave) [3] of 53 RLU, a recovery [4] of 100% and a pulldown efficiency [5] of 100%.

— patent US20110189692A1
